This data set has as its system Swiss albino male mice. In kind it is in vivo. The following applies: mouse, in vivo, 2.5 mg/kg. From the text:
Swiss albino male mice (˜20 g) were used for the in vivo toxicity study. Male Sprague-Dawley (SD) rats were used for electrocardiogram (ECG) monitoring (3-4 weeks old, ˜80-100 g) and the Langendorff isolated perfused heart experiments (8 weeks old, ˜250 g). Animals were acquired from the university Laboratory Animal Center (LAC) and were acclimatized to the Animal Holding Unit surroundings for at least 3 days prior to the experiments. Animals were kept under standard conditions with food and water available ad lib. All animal experiments were conducted according to the protocol (776/05a) approved by the Institutional Animal Care and Use Committee (IACUC) of the National University of Singapore.
The protein was dissolved in 200 μl of 0.9% NaCl (Braun, Malaysia) and administered through the intra-peritoneal (i.p.) route for the in vivo toxicity study in mice. Intra-tail vein (i.t.v.) administration was done in the ECG monitoring study in rats. The various protein doses were dissolved in 200 μl of 0.9% NaCl solution and injected into the tail vein using a 27 G ½ needle (Becton Dickinson, Franklin Lakes, N.J.) held at an angle of about 10° to the tail. […]
After purification of the protein from snake venom, i.p. doses of 1 mg/kg, 10 mg/kg and 100 mg/kg were administered to healthy male mice (three animals per group) and the symptoms were observed and recorded. […]

In the case of α-bungarotoxin [reference compound], the symptoms result is “severe paralysis of the hind limbs”.

For the origin of these results see US20100062980A1, “THERAPEUTIC USES OF BETA-ANTAGONISTS” (priority 2006, published 2010).
